The nanobody polyreactivity screen of Harvey et al. (2022)

Experiment: yeast display, Sf9 membrane polyspecificity reagent, FACS + sequencing; frameworks hold sequencing errors
Outline: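 Galactose induction of a Saccharomyces cerevisiae BJ5465 synthetic nanobody display library ran 36–48 hours. The cells were then stained for 1 hour at 4 °C with 10% biotinylated, detergent-solubilized Sf9 membrane reagent, pulled down on streptavidin microbeads and FACS-sorted into low and high (top ~1%) gates on expression and reagent-binding fluorescence. Labels for polyreactivity follow the gate of origin.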

QVQLQESGGHLEQSGGSLRLSCTASGTISDVRVMGWYRQAPGKERELVATISYVTITYYADSVKGRFTISRDSEKHRVSADDEPETGRYRGVLLRYYWGLGTQVTVSS
polyreactivity (PSR sort gate): low polyreactivity

QVQLVESGGGLVQAGGSLRLSCAASGSISTFYAMGWYRQAPGKEREFVAAISTRDGTTRYADSVKGRFTISRDNAKNTVYLQMNSLKPEDTAVYYCAAKGGGVWLYARIYSDYYWGQGTQVTVSS
polyreactivity (PSR sort gate): low polyreactivity

QVQLVESGGGLVQAGGSLRLSCAASGSTFYPNSMVWYRQAPGKERELVAAISRGTRTKYADSVKGRFTISRDNAKNSVYLQKNSLKPEDTAVYYCAADTGTGLDWGQGTQVTVSS
polyreactivity (PSR sort gate): high polyreactivity

QVQLVESGGGLVQAGGSLRLSCAASGRTFGRNALGWYRQAPGKEREFVAAISRRGDTTYYADSVKGRFTISRDNAKNTVYLQMNSLKPEDTAVYYCNADVIKDRFYWYYYWGQGTQVTVSS
polyreactivity (PSR sort gate): low polyreactivity

QVQLVESGGGLVQAGGSLRLSCGASGFIFKSYAMGWYRQATGKERELVAAFSRSGSSTYYADSVMGRFTISRDNAKNTVYLQMNSLKPEDTAVYYCAKKGYRFIHFGYDYWGQGTQVTVSS
polyreactivity (PSR sort gate): high polyreactivity

QVQLVESGGGLVQAGGSLRLSCAASGSTFETYAMGWYRQAPGKERELVATISLSGGRTYYADSVKGRFTISRDNAKNTVYLQMNSLKPEDTAVYYCNADGYGNVGGGDSWGQGTQVTVSS
polyreactivity (PSR sort gate): low polyreactivity

QVQLVESGGGLVQAGGSLRLSCAASGRIFGKNAMGWYRQAPGKERELVAAITGSGGNTYYADSVKGRFTISRDNAKNTVYLQMNSLKPEDTAVYYCNTSPRFRRYPDYDYWGQGTQVTVSS
polyreactivity (PSR sort gate): high polyreactivity

QVQLQERGGGLVQVRGSLRLSCAASGTIIIYGFMGWNRQAPGKERELVASINLGGITNYADSVTGRFTISRDNAKNTVYRQMISLKPEDNAVYYCAAYVVTGQNYGYWCQGTQVTVSS
polyreactivity (PSR sort gate): low polyreactivity

QVQLVESGGGLVQAGGSLRLSCAASGRIFSAYAMGWYRQAPGKEREFVAAISSRGGSTNYADSVKGRFTISRDNANNTVYLHMNSLKPEDTAVYYCNARYVQWYWIGKVIHIDNDYWGQGTQVNVSS
polyreactivity (PSR sort gate): low polyreactivity

QVQLVESGGGLVQAGGSLRLSCAASGRTFRRYAMGWYRQAPGKERELVAASSRGANTNYADSVKGRFTISRDNAKNTVYLQMNSLKPEDTSVYYGNAYGIDTGDYWGQGTKVTVSS
polyreactivity (PSR sort gate): high polyreactivity

QVQLVESGGGLVQAGGSLRLSCAASGRTFGRYAMGWYRQAPGKERELVAAITRGGSTNYADSVKGRFTISRDNAKNTVYLQMNSLKPEDTAVYYCAKSVRYRYDYWGQGTQVTVSS
polyreactivity (PSR sort gate): high polyreactivity

QVQLVESGGGLVQAGGSLRLSCAASGFTFSKYAMGWYRQAPVKERELVATITRGGNTYYADSVKGRFTISRDNAKNTVYLQMNSLKPEDTAVYYCNTGRRNRLYDYDYWGQVTQVTVSS
polyreactivity (PSR sort gate): high polyreactivity

QVQLVESGGGLVQAGGSLRLSCAASGRTFLYYTMGWYRQAPGKERELVAAITSGTSTNYADSVKGRFTISRDNAKNTVYLQMNSLKPEDTAVYYCNKRAARSLNGYPLYGYYYWGQGTQVTVSS
polyreactivity (PSR sort gate): low polyreactivity

QVQLVESGGGLVQAGGSLRLSCAASGYIFYYNAMGWYRQAPGKERELVADITWSGDSTYYADSVKGRFTISRYNAKNTVYLQMNSLKPEDTAVYYCAAEYLEYWDYDIMDYWGQGTQVTVSS
polyreactivity (PSR sort gate): low polyreactivity

QVQHVESGGRLVQAGGSLRLSCAASGSNWIYAMGWYRQAPGKERELVAAISVSGDRTYYADSVKGRFTISRDNAKNTVYLQMNSLKPEDTAVYYSATPPYPGRDYWGQGTEVTVSS
polyreactivity (PSR sort gate): high polyreactivity

QVQLVESGGGLVQAGGSLRLSCAASGFIFGYYTMGWYRQAPGKERELVASITRGGSTNYADSVKGRFTISRDNAKNTVYIQMNSLKPEDTAVYYCAKRYAQTYSVSRYYYWGQGTQVTVSS
polyreactivity (PSR sort gate): high polyreactivity

QVQLVESGGGLVQAGGSLRLICAASGFTFRAYAMGWYRQAPGKERELVAAISTVGGSTYYADSVKGRFTISRDNAKNTVYLQMNSLKPEETAVYYCAARRRTGREYGYWGKGTQVTVSS
polyreactivity (PSR sort gate): high polyreactivity

QGQLGESGGGLVQAGGSLRLSCAASGSIFPEYDMGWYRQAPGNERELDAAISWSGGSTYYADSVKGRFTISRANAKNTVSLQRNSLKPVDTAVYYCNRVPSWRIDYDYWGQGTQVSVSS
polyreactivity (PSR sort gate): low polyreactivity

QVQLVESGGGLVQAGGSLRLSCAASGRIQSVYAMGWYRQAPGKERELVAAIDYSGGSTNYADSVKGRFTISRDNGKNTVYLQMNSLKPEDTAVYYCNREGGAIAWRYLLEYLYSWGQGTQVTVSS
polyreactivity (PSR sort gate): low polyreactivity

QVQLVESGGGLVQAGGSLRLSCAASGSIFYSYAMAWYRQAPGKERELVAAITSGGSTYYADSVKGRFTISRDNAKNTVYLQMNTLKPEDTAVYYCAKRWPAYWGKGHGSWGQGTQVTVSS
polyreactivity (PSR sort gate): high polyreactivity

QVQLVESGGGLVQAGGSLRLSCAASGGIFRYYAMGWYRQAPGKERELVAAISSGGRTYYADSVKGRFTISRDNAKNTVYLQMNSLKPEDTAVYYCNADRYWGYDYWGQGTQVTVSS
polyreactivity (PSR sort gate): high polyreactivity

QVQLVESGGGLVQAGGSLRLSCAASGSIFDPYAMGWYRQAPGKERELVAAITASASSTYYADSVKGRFTISRDNAKNTVYLQMYSLKPEDTAVYYCAADRANWEYLLSLLGYDYWGQGTQVTVSS
polyreactivity (PSR sort gate): low polyreactivity

QVQLVESGGGLVQAGGSLRLSCAASGSTFARNTMGWSRQAPGKEREIVAAIDWSGGNTYYADSVKGRFTISRDNAKNTVYLQMNSLKPEDTAVYNCYDYWGQGTQVTVSS
polyreactivity (PSR sort gate): low polyreactivity

QVQLEESAGGLVQAGGSLRLSCAASGFTLYYYSMGWYRKAPGKERELVAAIAVSGTSTYYADSVKGRFTISRDNAKNTVYLQMNSLKPEDTAVYYCNKVFRVYQTFKAWGRDYWGQGTQVTVSS
polyreactivity (PSR sort gate): high polyreactivity

QVQLVESGGGLVQAGGSLRLSCAASGSIFSRNAMGWYRQAPGKEREFVARISWSSTSTNYADSVKGRFTISRDNSKNTVFLLINSLKPEDTAVYYCAADFRGDRRFDYWGQGTQVTVSS
polyreactivity (PSR sort gate): low polyreactivity

QVQLVESGGGLVQAGGSLRVSCAASGRIFFRNAMGWYRQAPGKESELVAAITRGGGSTYYADSVKGRFTISRDNATNTVYLQMNSLKPEDTEVYYCAAGAGYSLYSAYDYWGQGTQVTVSS
polyreactivity (PSR sort gate): low polyreactivity

QVQHVESGGGLVQAGGNLRLSCPASGRTIYSYTMGWYRQTPGKERELVAAINRSGGRTYYADSVKGRFTISRDNAKNTVYLQMNSLKQEDTAVYYGNALEYYRYDYWGQGTQVTVSS
polyreactivity (PSR sort gate): high polyreactivity

QVHLEESGGGLVQAGGSLRLSCAASGLTFQWNAMGWYRQAPGKERELVAAISYSGGSTYYAYSVKGRFTISRDNAKYCVYLQMKSLKPEDTAVYYCAARTYSQWLQRYRLLGQGTQVTVSS
polyreactivity (PSR sort gate): high polyreactivity

QVQIVESAAGLVQAGGSLRLSCAASGLTFTTYSKGWYRQAPGKERELVAAISRRGSRTYYADSVKGRFTISRDNSKNTVYLQMNSLKPEDTAVYYCNALTGSFKTYSFDYWGQGTQVTVSS
polyreactivity (PSR sort gate): high polyreactivity

QVQLVESGGGLVQAGGSLRISCADCGSIFEVNAMGWYRPAPGTERELVAAISSGDRTNYADSVKGRFTISRDNAKNTVYLQMNSLKPEDTAVYYCNKGAAWRPFFGPYYNYEYWGQGTQVTVSS
polyreactivity (PSR sort gate): high polyreactivity

QVQLVESGGGLVQAGGSLRLSCAASGLTFAAYAMGWYRQAPGKEREMVAAISRRGGSTYYADSVKGRFTISRDNAKNTVYLQMNRLKPEDTAVYYCARGGSRLTQGWLVTPYDYDYWGQGTQVNVSS
polyreactivity (PSR sort gate): high polyreactivity

QVQLVESGGGLVQAGGSLRLSCAASGSTFGINAMGWYRQAPGKERELVARISTGVRTYYADSVKGRFTISRDNAKNTVYLQMNSLKPEDTAVYYCAAVYYRGVDRAILSYRYYYWGQGTQVTVSS
polyreactivity (PSR sort gate): high polyreactivity
